Data reported in patent publication US20240076389A1 (NATIONAL RESEARCH COUNCIL OF CANADA, published 2024).

T1: huTyro3-ECD displayed on yeast (human, UniProt Q06418 41-429)
T1 construct: extracellular domain
T1 sequence (looked up): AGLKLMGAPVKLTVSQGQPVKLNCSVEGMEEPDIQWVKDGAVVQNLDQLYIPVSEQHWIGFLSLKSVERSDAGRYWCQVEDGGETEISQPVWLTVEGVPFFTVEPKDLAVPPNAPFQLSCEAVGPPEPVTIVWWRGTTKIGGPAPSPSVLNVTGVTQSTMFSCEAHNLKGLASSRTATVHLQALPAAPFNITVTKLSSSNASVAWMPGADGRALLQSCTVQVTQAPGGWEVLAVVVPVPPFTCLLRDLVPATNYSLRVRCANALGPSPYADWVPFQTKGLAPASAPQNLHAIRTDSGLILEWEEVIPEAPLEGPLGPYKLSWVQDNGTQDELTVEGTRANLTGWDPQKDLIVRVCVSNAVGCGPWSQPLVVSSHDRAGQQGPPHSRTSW

T2: human AXL expressed on the cell surface of tumor cell lines (human, UniProt P30530 26-894)
T2 construct: whole, on cells; also called cell surface-expressed AXL; cell-based AXL
T2 sequence (looked up): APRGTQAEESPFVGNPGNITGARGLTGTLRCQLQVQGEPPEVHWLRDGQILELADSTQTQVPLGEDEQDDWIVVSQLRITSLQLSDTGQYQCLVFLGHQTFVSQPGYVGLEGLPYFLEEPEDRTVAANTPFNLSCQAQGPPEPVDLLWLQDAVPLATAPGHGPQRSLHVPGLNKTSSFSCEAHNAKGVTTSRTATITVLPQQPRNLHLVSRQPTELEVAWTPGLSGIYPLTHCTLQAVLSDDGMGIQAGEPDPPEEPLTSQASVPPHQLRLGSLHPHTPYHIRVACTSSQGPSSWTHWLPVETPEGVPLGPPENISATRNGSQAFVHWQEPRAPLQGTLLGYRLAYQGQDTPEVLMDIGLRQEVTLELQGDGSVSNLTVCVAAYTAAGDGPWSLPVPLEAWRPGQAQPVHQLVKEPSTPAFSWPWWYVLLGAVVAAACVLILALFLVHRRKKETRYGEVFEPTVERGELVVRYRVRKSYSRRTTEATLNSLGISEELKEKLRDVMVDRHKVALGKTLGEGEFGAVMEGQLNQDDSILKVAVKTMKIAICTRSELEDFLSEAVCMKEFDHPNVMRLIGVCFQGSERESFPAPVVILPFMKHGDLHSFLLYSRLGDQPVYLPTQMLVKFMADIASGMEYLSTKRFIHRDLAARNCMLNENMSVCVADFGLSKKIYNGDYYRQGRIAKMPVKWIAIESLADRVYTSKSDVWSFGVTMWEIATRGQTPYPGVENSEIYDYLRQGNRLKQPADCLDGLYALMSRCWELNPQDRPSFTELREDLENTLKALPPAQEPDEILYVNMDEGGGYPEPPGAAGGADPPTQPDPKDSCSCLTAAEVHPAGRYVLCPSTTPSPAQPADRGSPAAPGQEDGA

T3: AXL fragment # 3 (AXL amino acids 26-138, IgL1)
T3 chain: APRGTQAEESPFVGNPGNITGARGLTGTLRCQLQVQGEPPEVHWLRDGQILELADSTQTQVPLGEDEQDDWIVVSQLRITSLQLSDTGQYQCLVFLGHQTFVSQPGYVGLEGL

T4: AXL fragment # 1 (AXL amino acids 135-226, IgL2)
T4 chain: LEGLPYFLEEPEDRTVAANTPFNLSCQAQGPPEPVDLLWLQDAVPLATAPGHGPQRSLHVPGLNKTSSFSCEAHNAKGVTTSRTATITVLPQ

T5: AXL fragment # 7 (AXL amino acids 135-335, IgL2+FN III-1)
T5 chain: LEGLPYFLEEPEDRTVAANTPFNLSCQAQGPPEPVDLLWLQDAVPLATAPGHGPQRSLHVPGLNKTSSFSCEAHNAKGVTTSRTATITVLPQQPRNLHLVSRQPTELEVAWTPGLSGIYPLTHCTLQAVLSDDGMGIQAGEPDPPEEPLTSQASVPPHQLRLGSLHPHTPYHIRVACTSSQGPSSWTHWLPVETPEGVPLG


Assays:
[1] = target: T6, cyAXL-ECD displayed on yeast; experiment: yeast surface display ELISA, non-denatured yeast, goat anti-human F(ab')2-HRP
T6 construct: extracellular domain; 'cy' read as cynomolgus

[2] = target: T1, huTyro3-ECD displayed on yeast; experiment: as above
[3] = target: T2, human AXL expressed on the cell surface …; experiment: flow cytometry on H292 cells, apparent cell binding constant
Procedure: (§1) Detection of antibody binding to surface AXL by flow cytometry. Prior to analysis, cells were plated such that they were not more than 80% confluent on the day of analysis. Cells were washed in PBS and harvested by the addition of cell dissociation buffer (Sigma). A cell suspension containing 2.5×10⁵ cells (in 500 μl corresponding cell culture media) was incubated with various concentrations (0.01-10 nM) of anti-AXL antibodies for 2 h at 4° C. (to prevent internalization). Following one wash with cell culture media, primary antibody was incubated with 2 μg DYLIGHT™ 488 conjugated AffiniPure goat anti-mouse IgG Alexa 488 secondary antibody (Jackson ImmunoResearch) in 100 μl of media for 1 h at 4° C. Prior to analysis, cell pellets were re-suspended in 300-500 μl media and filtered through a 50 μm nylon mesh filter to remove cell aggregates. Flow cytometry analyses were performed on 10,000 viable cells gated on forward scattering, side scattering parameters and propidium iodide dye exclusion using a BD LSRII flow Cytometer (Becton-Dickinson Biosciences, CA, USA) and a standard filter set using BD FACSDiva™ acquisition software, according to manufacturer's instructions.
(§2) Specific detection of antibody binding was calculated as the mean fluorescent intensity of binding to each primary antibody after background level subtraction of the mean fluorescent intensity of binding in the absence of primary antibody (but containing detection antibody). Binding parameters Bmax, (maximum fluorescence signal at receptor saturation), and KD (apparent cell binding constant) were then determined using a One site—Specific binding with Hill slope model in GraphPad Prism v 6.0.

[4] = target: T2, human AXL expressed on the cell surface …; experiment: flow cytometry on H292 cells, one site-specific binding with Hill slope
Procedure: as §1, §2

[5] = target: T3, AXL fragment # 3 (AXL amino acids …); experiment: yeast surface display of hAXL fragments, whole yeast cell ELISA, signal normalised to anti-MYC
Description: (§3) Epitope mapping. […] The YSD vector (pPNL6) was from The Pacific Northwest National Laboratory, USA.

[6] = target: T4, AXL fragment # 1 (AXL amino acids …); experiment: yeast surface display of hAXL fragments (Aga2-HA-(hAXL)-MYC), whole yeast cell ELISA, signal normalised to anti-MYC
Description: as §3

[7] = target: T5, AXL fragment # 7 (AXL amino acids …); experiment: as above
Description: as §3

Binder	yeast ELISA signal normalized to myc expression level [1]	yeast ELISA signal normalized to myc expression level [2]	Kd [3] [nM]	Bmax [4] [MFI]	binding result [5]	binding result [6]	binding result [7]
NRC-sdAb001-Fc (VHH-human IgG1 Fc fusion) (Fc fusion, VHH fused N-terminally to human IgG1 Fc, made in HEK293 cells; also called NRC-sdAb0001-Fc; NRC-sdAb001-hIgG1; not shown: human IgG1 Fc) QVKLEESGGGLVQAGGSLRLSCTASASISSFDIMGWYRQAPGKQRELVAAITTLDIANYRDSVKGRFTISRDNAKNTVYLQMDSLKPEDTARYHCAAFQSDQNYWGQGTQVTVSS	0.824	0.017					
F111-3C8 (antibody, V domains shown, also called F111-3C8-2) VH: QVQLQQPGAELGKPGTSVKLSCKASGYTFTSYWMHWVKRVPGQGLEWIGNINPNSTSADYNEKFKRKATLTVDKSSSTAYMQLSTLTSEDSAVYYCTRPLMGPYWYFDVWGTGTTVTVSS VL: QIVLTQSPAIMSASPGEKVTISCSASSSVSYMYWYQQKPGSSPKPWIYRTSNLASGVPARFSGSGSGTSYSLTISSMEAEDAATYYCQQYHNYPPTFGGGTKLEIK			1.23	1480	no binding	binds	binds
F111-5E9 (antibody, V domains shown, also called F111-5E9-2; mAb 5E9) VH: QIQLVQSGPELKKPGETVKISCKASGYTFTKYGMNWVKQAPGKGLKWMGWINTYTGEPTYADDFKGRFAFSLETSASTAYLQINNLTTEDMVTYFCAKGGYYSNPIYPMDYWGQGTSVTVSS VL: DIQMTQTTSSLSASLGDRVTISCRASQDINNYLNWYQQKPDGTVKLLIYYISRLHSGVPSRFSGSGSGTDYSLTISNLELEDVATYFCQQGNTLPFTFGSGTKLEIK			0.177	1150	no binding	binds	binds
hFC-F107-10G1 (antibody, human IgG1, kappa, V domains shown, Chimeric mAb, human IgG1 / human kappa constant regions; also called mAb F107-10G1) VH: EVNLVESGGGVVKPGASLKLSCEASGFTFSNYGMSWVRQTSDKRLEWVASISGGGGRTYYLDNVKGRFIISRENAKNTLYLQMSSLKSEDTALFYCARGARASYFAMDYWGQGSSVTVSS VL: VIVMTQSHKFMSTSVGDRVSITCKASQDVTTAVAWYQQKPGQSPKLLIYWASTRHTGVPDRFTGSGSGTDYSLTISNVQTEDLAFYYCQQHFTTPLTFGAGTKLELKR	1.14	-0.023					

Further binders by falling Kd [3], results first:

yeast ELISA signal normalized to myc expression level [1]	yeast ELISA signal normalized to myc expression level [2]	Kd [3] [nM]	Bmax [4] [MFI]	binding result [5]	binding result [6]	binding result [7]	Binder
		0.104	1430				F107-7H5 (antibody, V domains shown, also called F107-7H5-2; mAb 7H5) VH: QVQLQQPGAELVKPGASVKLSCKASGYTFTSYWINWVKQRPGQGLEWIGNIYPDSSSTNYNEKFKSKATLTVDKSSTTAYIQFSSLTSEDSAVYYCTRDTYGGSPDYWGQGTTLTVSS VL: DIVMSQSPSSLAVSAGEKVTMSCKSSQSLLNSRTRKIYLAWYQQKPGQSPKLLIYWASTRQSGVPDRFTGSGSGTDFTLTISSVQAEDLAVYYCKQSYNLWTFGGGTKLEIK
		0.101	937				F107-10G1 (antibody, V domains shown, also called F107-10G1-3) VH: EVNLVESGGGVVKPGASLKLSCEASGFTFSNYGMSWVRQTSDKRLEWVASISGGGGRTYYLDNVKGRFIISRENAKNTLYLQMSSLKSEDTALFYCARGARASYFAMDYWGQGSSVTVSS VL: VIVMTQSHKFMSTSVGDRVSITCKASQDVTTAVAWYQQKPGQSPKLLIYWASTRHTGVPDRFTGSGSGTDYSLTISNVQTEDLAFYYCQQHFTTPLTFGAGTKLELK
		0.088	1310				F107-8D12 (antibody, V domains shown, also called F107-8D12-2; mAb 8D12) VH: QVQLQQPGAELVKPGASVQLSCKASGYTFISFWINWVKQRPGQGLEWMGNIFPGSSSTNYNEKFKSKATLTVDKSSSTAYMQLSSLTSEDSAVYFCARDYYGGSPDYWGQGTTLTVSS VL: DIVMSQSPSSLAVSAGERVTMSCKSSQSLLNTRTRKNYLAWYQQKPGQSPKLLIYWASTRESGVPDRFTGSGSGTDFTLTISSVQAEDLAVYYCKQSYNLWTFGGGTKLEIK
